# The supplement of paper PMC9112550, “Optimization of the antimicrobial peptide Bac7 by deep mutational scanning” (BMC Biology, 2022)
# System: Escherichia coli TOP10
# Assay: shrunken log2 fold change of peptide-encoding DNA abundance (4.5 h post-induction vs induction); higher = less antimicrobial activity (less host growth inhibition)
# Conditions: time post-induction: 4.5 h; library: site-saturation at positions 5, 18, 19, 20
# 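Further: peptides expressed intracellularly from a pBAD plasmid library in pooled LB shake-flask culture, induced with 0.3% L-arabinose, DNA abundance read by NGS, three biological replicates, DESeq2 with apeglm shrinkage.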
row,Sequence,shrunken log2 fold change
1,RRIRWRPPRLPRPRPRPLKPPRP,0.0915
2,RRIRDRPPRLPRPRPRPGCWPRP,1.03
3,RRIRCRPPRLPRPRPRPNTHPRP,-0.499
4,RRIRKRPPRLPRPRPRPGFKPRP,-0.0198
5,RRIRFRPPRLPRPRPRPRHMPRP,-0.124
6,RRIRLRPPRLPRPRPRPFPNPRP,0.203
7,RRIRHRPPRLPRPRPRPEIPPRP,-0.111
8,RRIRVRPPRLPRPRPRPAEMPRP,0.0714
9,RRIRGRPPRLPRPRPRPIAYPRP,0.117
10,RRIRQRPPRLPRPRPRPWVNPRP,-0.215
11,RRIRHRPPRLPRPRPRPINGPRP,-0.437
12,RRIRARPPRLPRPRPRPGIKPRP,-0.0359
13,RRIRCRPPRLPRPRPRPYLEPRP,-0.208
14,RRIRGRPPRLPRPRPRPEMAPRP,2.8
15,RRIRIRPPRLPRPRPRPCPHPRP,-0.143
16,RRIRLRPPRLPRPRPRPTCSPRP,-0.0337
17,RRIRNRPPRLPRPRPRPHQEPRP,-0.00146
18,RRIRHRPPRLPRPRPRPMMLPRP,-0.286
19,RRIRKRPPRLPRPRPRPFTNPRP,-0.0844
20,RRIRDRPPRLPRPRPRPVGRPRP,0.301
21,RRIRIRPPRLPRPRPRPQAHPRP,-0.261
22,RRIRCRPPRLPRPRPRPGMSPRP,0.0961
23,RRIRGRPPRLPRPRPRPAFSPRP,0.0169
24,RRIRRRPPRLPRPRPRPRYRPRP,-0.0166
25,RRIRWRPPRLPRPRPRPEVPPRP,0.0568

row,Sequence,shrunken log2 fold change
1,RRIRWRPPRLPRPRPRPHRVPRP,-0.0781
2,RRIRGRPPRLPRPRPRPITTPRP,0.407
3,RRIRCRPPRLPRPRPRPVTMPRP,-0.49
4,RRIRNRPPRLPRPRPRPMFSPRP,-0.186
5,RRIRCRPPRLPRPRPRPFNVPRP,-0.146
6,RRIRARPPRLPRPRPRPYPTPRP,-0.0691
7,RRIRGRPPRLPRPRPRPMNWPRP,0.179
8,RRIRCRPPRLPRPRPRPLQIPRP,-0.213
9,RRIRWRPPRLPRPRPRPYWAPRP,-0.298
10,RRIRLRPPRLPRPRPRPPRWPRP,0.408
11,RRIRRRPPRLPRPRPRPHSTPRP,0.0894
12,RRIRNRPPRLPRPRPRPFDCPRP,0.0101
13,RRIRKRPPRLPRPRPRPHIRPRP,0.0177
14,RRIRGRPPRLPRPRPRPPHLPRP,0.558
15,RRIRCRPPRLPRPRPRPWMGPRP,0.439
16,RRIRVRPPRLPRPRPRPLGQPRP,0.131
17,RRIRWRPPRLPRPRPRPSWYPRP,-0.239
18,RRIRLRPPRLPRPRPRPNMFPRP,-0.225
19,RRIRSRPPRLPRPRPRPCKPPRP,-0.173
20,RRIRVRPPRLPRPRPRPRSPPRP,0.342
21,RRIRCRPPRLPRPRPRPRNIPRP,-0.33
22,RRIRQRPPRLPRPRPRPMGQPRP,0.0628
23,RRIRTRPPRLPRPRPRPMMCPRP,-0.59
24,RRIRMRPPRLPRPRPRPEHCPRP,0.429
25,RRIRIRPPRLPRPRPRPQNVPRP,-0.173

row,Sequence,shrunken log2 fold change
1,RRIRFRPPRLPRPRPRPADEPRP,0.173
2,RRIRARPPRLPRPRPRPLRIPRP,2.9
3,RRIRLRPPRLPRPRPRPATTPRP,0.467
4,RRIRSRPPRLPRPRPRPTMSPRP,-0.0133
5,RRIRKRPPRLPRPRPRPVSVPRP,-0.0496
6,RRIRNRPPRLPRPRPRPWYVPRP,-0.097
7,RRIRIRPPRLPRPRPRPIHMPRP,-0.379
8,RRIRQRPPRLPRPRPRPTIPPRP,-0.205
9,RRIRHRPPRLPRPRPRPFSTPRP,-0.304
10,RRIRVRPPRLPRPRPRPPGHPRP,0.246
11,RRIRNRPPRLPRPRPRPMAYPRP,-0.161
12,RRIRDRPPRLPRPRPRPPTKPRP,0.00654
13,RRIRPRPPRLPRPRPRPLWWPRP,0.649
14,RRIRWRPPRLPRPRPRPGIHPRP,0.11
15,RRIRCRPPRLPRPRPRPPGFPRP,0.822
16,RRIRWRPPRLPRPRPRPRVPPRP,0.444
17,RRIRQRPPRLPRPRPRPFWQPRP,0.213
18,RRIRDRPPRLPRPRPRPHATPRP,0.985
19,RRIRYRPPRLPRPRPRPHMEPRP,-0.249
20,RRIRPRPPRLPRPRPRPSYWPRP,-0.277
21,RRIRYRPPRLPRPRPRPTDTPRP,-0.392
22,RRIRKRPPRLPRPRPRPTEWPRP,0.0407
23,RRIRFRPPRLPRPRPRPDDHPRP,-0.139
24,RRIRPRPPRLPRPRPRPFARPRP,0.206
25,RRIRQRPPRLPRPRPRPFMPPRP,-0.216
